B1: ADP-ribosylation factor 6 (Homo sapiens), P62330 (parent)
chain: MGKVLSKIFGNKEMRILMLGLDAAGKTTILYKLKLGQSVTTIPTVGFNVETVTYKNVKFNVWDVGGQDKIRPLWRHYYTGTQGLIFVVDCADRDRIDEARQELHRIINDREMRDAIILIFANKQDLPDAMKPHEIQEKLGLTRIRDRNWYVQPSCATSGDGLYEGLTWLTSNYKS
partner: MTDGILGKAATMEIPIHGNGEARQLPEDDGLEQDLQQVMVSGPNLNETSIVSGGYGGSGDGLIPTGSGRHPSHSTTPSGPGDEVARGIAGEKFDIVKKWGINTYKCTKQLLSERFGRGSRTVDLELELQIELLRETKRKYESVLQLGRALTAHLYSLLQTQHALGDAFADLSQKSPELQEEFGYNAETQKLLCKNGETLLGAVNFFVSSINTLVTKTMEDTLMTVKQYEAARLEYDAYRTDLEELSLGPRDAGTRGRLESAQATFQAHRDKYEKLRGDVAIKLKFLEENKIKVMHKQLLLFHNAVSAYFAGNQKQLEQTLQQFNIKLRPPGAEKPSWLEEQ

Variants of: B1
Details: with arfp2_human ARFIP2, P53365

| effect of a mutation on the interaction | Variant |
| --- | --- |
| decreasing interaction | T28N |
